Reference: the Human Domainome abundance scans (Beltran et al. 2025)
± gives the uncertainty stated by the source.

B1: Max-interacting protein 1, residues 70 to 120; numbered along this chain, P50539 (parent)
chain: STHNELEKNRRAHLRLCLERLKVLIPLGPDCTRHTTLGLLNKAKAHIKKLE

Variants of: B1
Experiment: abundance fitness (aPCA) (normalised: wild type 0, dead -1); higher = more abundant; growth selection in yeast, the domain comes from the species named
Settings: Homo sapiens

Variant | abundance fitness
STHNELEKNRRAHLRLFLERLKVLIPLGPDCTRHTTLGLLNKAKAHIKKLE | 0.048 ± 0.14
STHNELEKNRRAHLRLRLERLKVLIPLGPDCTRHTTLGLLNKAKAHIKKLE | -0.729 ± 0.089
STHNELEKNRRAHLRLPLERLKVLIPLGPDCTRHTTLGLLNKAKAHIKKLE | -0.232 ± 0.11
STHNELEKNRRAHLRLCLERLLVLIPLGPDCTRHTTLGLLNKAKAHIKKLE | -0.639 ± 0.097
STHNELEKNRRAHLRLCLERLFVLIPLGPDCTRHTTLGLLNKAKAHIKKLE | -0.759 ± 0.15
STHNELEKNRRAHLRLCLERLHVLIPLGPDCTRHTTLGLLNKAKAHIKKLE | -0.651 ± 0.24
STHNELEKNRRAHLRLCLERLMVLIPLGPDCTRHTTLGLLNKAKAHIKKLE | -0.753 ± 0.13
STHNELEKNRRAHLRLCLERLQVLIPLGPDCTRHTTLGLLNKAKAHIKKLE | -1.02 ± 0.26
STHNELEKNRRAHLRLCLERLKVLIPLGPDCTRHFTLGLLNKAKAHIKKLE | 0.198 ± 0.13
STHNELEKNRRAHLRLCLERLKVLIPLGPDCTRHKTLGLLNKAKAHIKKLE | 0.218 ± 0.14
STHNELEKNRRAHLRLCLERLKVLIPLGPDCTRHVTLGLLNKAKAHIKKLE | 0.057 ± 0.086
STHNELEKNRRAHLRLCLERLKVLIPLGPDCTRHTTLGLLNKAKAHIKKPE | -0.353 ± 0.2
STHNELEKNRRAHLRLCLERLKVLIPLGPDCTRHTTLGLLNKAKAHIKKWE | 0.023 ± 0.096
STHNELEKNRRAHLRLCLERLKVLIPLYPDCTRHTTLGLLNKAKAHIKKLE | 0.133 ± 0.15
STHNELEKNRRAHLRLCLERLKVLIPLHPDCTRHTTLGLLNKAKAHIKKLE | -0.147 ± 0.22
STHNELEKNRRAHLRLCLERLKVLIPLGPDCTNHTTLGLLNKAKAHIKKLE | -0.372 ± 0.15
STHNELEKNRRAHLRLCLERLKVLIPLGPDCTEHTTLGLLNKAKAHIKKLE | -0.667 ± 0.11
STHNELEKNRRAHLRLCLERLKVLIPLGPDCTHHTTLGLLNKAKAHIKKLE | -0.247 ± 0.18
STHNELEKNRRAHLRLCLERLKVLIPLGPDCTFHTTLGLLNKAKAHIKKLE | -0.129 ± 0.12
STHNELEKNRRAHLRLCLERLKVLIPLGPDCTGHTTLGLLNKAKAHIKKLE | -0.257 ± 0.072
STHNELEKNRRAHLMLCLERLKVLIPLGPDCTRHTTLGLLNKAKAHIKKLE | -0.462 ± 0.17
STHNELEKNRRAHLRLCLERLKVLIPLGPDCTRHTTLGLLNKAKAHIKKLV | 0.271 ± 0.14
STHNELEKNRRAHLRLCLERLKVLIPLGPDCTRHTTLGLLNKAKAHIKKLL | -0.182 ± 0.25
STHNELEKNRRAHLRLCLERLKVLIPLGPDCTRHTTLGLLNKAKAHIKKLS | 0.615 ± 0.16
STHNELEKNRRAHLRLCLERLKVLIPLGPDCTRHTTLGLLNKGKAHIKKLE | -0.583 ± 0.085
STHNELEKNRRAHLRLCLERLKVLIPLGPDCTRHTTLGLLNKIKAHIKKLE | -0.2 ± 0.14

Variant | abundance fitness
STHNELEKNRRAHLRLCLERLKVLIPLGPDCTRHTTLGLLNFAKAHIKKLE | -0.256 ± 0.13
STHNELEKNRRAHLRLCLERLKVLIPLGPDCTRHTTLGLLNCAKAHIKKLE | -0.185 ± 0.1
STHNELEKNRRAHLRLCLERLKVLIPLGPDCTRHTTLGLLNEAKAHIKKLE | -0.716 ± 0.17
STHNELEKNDRAHLRLCLERLKVLIPLGPDCTRHTTLGLLNKAKAHIKKLE | -0.545 ± 0.13
STHNELEKNRRAHLRLCLERLKVLIPLGPDCTRHTTLYLLNKAKAHIKKLE | -0.546 ± 0.18
STHNELEKNRRAHLRLCLERLKVLIPLGPDCTRHTTLGLLNKAKAAIKKLE | 0.157 ± 0.11
STHNELEKNRRAHLRLCLERLKVLIPLGPDCTRHTTLGLLNKAKAEIKKLE | -0.527 ± 0.14
STHNELDKNRRAHLRLCLERLKVLIPLGPDCTRHTTLGLLNKAKAHIKKLE | -0.184 ± 0.13
STHNELRKNRRAHLRLCLERLKVLIPLGPDCTRHTTLGLLNKAKAHIKKLE | -0.161 ± 0.086
STHNELNKNRRAHLRLCLERLKVLIPLGPDCTRHTTLGLLNKAKAHIKKLE | 0.176 ± 0.24
STHNELYKNRRAHLRLCLERLKVLIPLGPDCTRHTTLGLLNKAKAHIKKLE | -0.205 ± 0.15
STHNELEKNRRAHLRLCLERLKVLIPLGPDCTRHTTLGLCNKAKAHIKKLE | -0.926 ± 0.16
STHAELEKNRRAHLRLCLERLKVLIPLGPDCTRHTTLGLLNKAKAHIKKLE | -0.258 ± 0.096
STHRELEKNRRAHLRLCLERLKVLIPLGPDCTRHTTLGLLNKAKAHIKKLE | -0.255 ± 0.093
STHNELEKNRRAHLRLCLWRLKVLIPLGPDCTRHTTLGLLNKAKAHIKKLE | -0.782 ± 0.13
STHNELEKNRRAHLRLCLPRLKVLIPLGPDCTRHTTLGLLNKAKAHIKKLE | -0.358 ± 0.15
STHNELEKNRRAHLRLCLTRLKVLIPLGPDCTRHTTLGLLNKAKAHIKKLE | -0.532 ± 0.11
STHNELEKNRRAHLRLCLERLKVLIPLGPDCTRHTTTGLLNKAKAHIKKLE | 0.042 ± 0.13
STHNELEKNRRAHLRLCLERLKVLIPLGPDCTRHTTHGLLNKAKAHIKKLE | -0.399 ± 0.25
STHNELEKNRRAHLRLCLERLKVLIPLGPDCYRHTTLGLLNKAKAHIKKLE | -0.174 ± 0.16
STHNELEKNRRAHLRLCLERLKVLIPLGPDCDRHTTLGLLNKAKAHIKKLE | -0.387 ± 0.11
STHNELEKNRRAHLRLCLERLKVLIPLGPDCRRHTTLGLLNKAKAHIKKLE | -0.137 ± 0.075
STHNELEKNRRAHLRLCLERLKVLSPLGPDCTRHTTLGLLNKAKAHIKKLE | -0.39 ± 0.091
STHNELEKNRRAHLRLCLERLKVLIPLGPDCTRHTTLGLLNKAKRHIKKLE | -0.167 ± 0.087
STHNELEKNRRAHLRLCLERLKVLIPLGPDCTRHTTLGLLNKAKHHIKKLE | -0.168 ± 0.18
